Results published in patent publication US20130323264A1.

Target: monoclonal antibody against the N-terminal FERM domain of moesin
Assay: cell-based or functional assay

CD62P FD (Mnx), platelet activation induced by anti-moesin N-terminal domain antibody, inhibitor N-terminal FERM domain: 5.79 FD (Mnx)
CD63 FD (Mnx), platelet activation induced by anti-moesin N-terminal domain antibody, inhibitor N-terminal FERM domain: 6.3 FD (Mnx)
PAIR, platelet aggregation induced by anti-moesin N-terminal domain antibody (2 µg/mL), inhibitor N-terminal domain (0.2 mM): 90.2%
PAR (%), platelet aggregation induced by anti-moesin N-terminal domain antibody (2 µg/mL), inhibitor N-terminal domain (0.2 mM): 6.03%
Substance: N-terminal FERM domain of human moesin protein (from UniProt P26038 1-297)
